For orientation: stoichiometry N means the number of molecules, sites or subunits per partner or assembly.

This data set concerns the molecule itself. Briefly: crystal structure.

B1: BT_1526 myo-inositol phosphate synthase (MIPS) of Bacteroides thetaiotaomicron VPI-5482 (enzyme, UniProt Q8A7J8 1-429, looked up)
chain: MKQEIKPATGRLGVLVVGVGGAVATTMIVGTLASRKGLAKPIGSITQLATMRMENNEEKLIKDVVPLTDLNDIVFGGWDIFPDNAYEAAMYAEVLKEKDLNGVKDELEAIKPMPAAFDHNWAKRLNGTHIKKAATRWEMVEQLRQDIRDFKAANNCERVVVLWAASTEIYIPLSDEHMSLAALEKAMKDNNTEVISPSMCYAYAAIAEDAPFVMGAPNLCVDTPAMWEFSKQKNVPISGKDFKSGQTLMKTVLAPMFKTRMLGVNGWFSTNILGNRDGEVLDDPDNFKTKEVSKLSVIDTIFEPEKYPDLYGDVYHKVRINYYPPRKDNKEAWDNIDIFGWMGYPMEIKVNFLCRDSILAAPIALDLVLFSDLAMRAGMCGIQTWLSFFCKSPMHDFEHQPEHDLFTQWRMVKQTLRNMIGEKEPDYLA
Regarding B1, the “stoichiometry N” value was 4.
